Laboratory results published in the supplement of paper PMC9170038.

System: MS2 coat protein
Assay: apparent KD of MS2 coat protein; designed switch direction (-1 OFF switch, 1 ON switch): 1; higher = weaker reporter binding
How it was run: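 An oligonucleotide input, 200 uM small-molecule ligand, or no input was present during titration of SNAP-549-labelled MS2 coat protein, which was doubled from 0.7 or 1.5 nM to 3 µM. Designed RNA switches had been transcribed on Illumina chips by stalled E. coli RNA polymerase. Apparent KD per design is the median over clusters of curves fitted to normalised cluster fluorescence.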

[1] = Eterna round: R95, input ligand: FMN 200 uM
[2] = Eterna round: R95, input ligand: microRNA oligo, concentration not stated
[3] = Eterna round: R95, input ligand: none
[4] = input ligand: microRNA oligo, concentration not stated

Sequence | apparent KD of MS2 coat protein [1] | apparent KD of MS2 coat protein [2] | apparent KD of MS2 coat protein [3] | apparent KD of MS2 coat protein (input ligand: FMN 200 uM) | apparent KD of MS2 coat protein [4] | apparent KD of MS2 coat protein (input ligand: none)
GUCAGGCAAGCUUUUUUCUCGUAGUGUAAACAUGAGGAUCACCCAUGUGCUCGCCCUGGAUCUUUGGAUCCCAGAAA [Anedraus] (puzzle: Sensor for hsa-mir-208a) | 40.2 nM | 21 nM | 41.9 nM | – | – | –
AAAGGAUGAUGUUACAUGAGGAUCACCCAUGUUGUGAUAACUAAGGAUAUGUGUUAAACCAGUUAAUAGAAGGUAGGAUCAUAA [AK SSNG3-V2-5] (Eterna round: R96, puzzle: Same State NG 3) | – | – | – | 182 nM | 77.1 nM | 112 nM
UGUUGUAUUACAGGAUAUCUAUUAUAUUUAUUUAGAGAAGGGUAUUCACAUGAGGAUCACCCAUGUAUAUACGAGGAAGUUGUG [JMF's solution 15] (Eterna round: R96, puzzle: Same State NG 1) | – | – | – | – | 36.4 nM | –
CGGGUACAUGAGGAUCACCCAUGUGGGAGGGAUGCAGGAUAUGUGGGAAAAGGGUAUGUAACAGAAGGGCAAGGAG [JR_SS!_Sub014] (puzzle: Same State 1) | 30.8 nM | 31.8 nM | 45.1 nM | – | – | –
UUAAUUAUGUAAGGAUAUACAUGAGGAUUUCUCGUAGAAGGUACAUUACAUGAGGAUCACCCAUGUAGGUGUCCGUAGACGCCA [JL SSNG1 1.07] (Eterna round: R96, puzzle: Same State NG 1) | – | – | – | 142 nM | 78.3 nM | 129 nM
CGGCGCUGUCGAGAGGAUAUGCGGUGAUGGACAUGAGGAUCACCCAUGUUAGCGAUAGCAUUACGGUAGAAGGCUCUAUAGUUGC [Soteed Omei mod 9] (puzzle: Same State 2) | – | 248 nM | – | – | – | –
CGGCUUGUACAUGAGGAUCACCCAUGUAUGUACAAGUUUUUGCUCGUCUUAUAAAUACGAUCUACCGAAAGGUAGAU [BIOPHYS241_ElaineNg_1] (puzzle: Sensor for hsa-mir-208a version 2) | 276 nM | 18.7 nM | 236 nM | – | – | –
GCCGGCUGGUGAGGAUAUGGCACCUUAUUGGUGCCAGAAGGCAUGUCAAUUGACAUGAGGAUCACCCAUGUGUUGUCGUUGGCG [salish99_SSNG1_r04_609] (Eterna round: R96, puzzle: Same State NG 1) | – | – | – | 698 nM | 72.4 nM | 742 nM
AUUAUAAAUGCAGGAUAUGAUUAACAUGAGGAUCACCCAUGUGGUGUUGUGAGUAAGGAGAGUGAUCAGAAGGGCAUUUUUUUU [JMF's solution 24] (Eterna round: R96, puzzle: Same State NG 2) | – | – | – | 620 nM | 343 nM | 555 nM
GGCCUGUAGACAGGAUAUGGGAAAGGAAGUGUACCAGAAGGGUCAAAGAUAUAGGUGGACAUGAGGAUCACCCAUGUAAUUAAC [PowerStrip SSNG 1.21] (Eterna round: R96, puzzle: Same State NG 1) | – | – | – | 56.6 nM | 70.5 nM | 105 nM
UAUAAACAUGAGGAUCACCCAUGUAAUAAUAUGGGAGGAUAUCAGAUUUAAUUUAAUUUAUGAGAAGGCCUAAUAU [Mat - Same State 1 - Mod of Eli - D66] (puzzle: Same State 1) | 34.3 nM | 491 nM | 825 nM | – | – | –
GACUAUCUAUCUCAGGAUAUCAUGUCAAAGACAUGAGGAUCACCCAUGUACCAGGAAACUGGUUAUGAGAAGGGAGAUAGAUAGA [Mat - Same State 2 - Mod - D44] (puzzle: Same State 2) | 130 nM | 58.1 nM | 991 nM | – | – | –
GUGCAACCGUGUGAGGAUAUCGGUGAAUAAACAUGAGGAUCACCCAUGUCCGAAGCUCGGUUCUCCGAGAAGGCGCACAGUUGCA [Same State 2 - Mod of Erisin v.4] (puzzle: Same State 2) | 23.8 nM | 116 nM | 159 nM | – | – | –
AAAAGAAACAUGUACCUGAGUACAUGAAAACAUGAGGAUCACCCAUGUAAUAAGUGGGUGUUUUGUCUUUGUCUUAU [JL pocket 34, mod 5] (Eterna round: R96, puzzle: Sensor for hsa-mir-208a) | – | – | – | 50.8 nM | 119 nM | 51.8 nM
